“And” between values parts separate entries of the source, which are not always exact repeats. Equal entries are not always repeated.
Key:
[1] = target: the molecule itself; assay: SEC-MALS; proteins alone or binary mixtures at the indicated molar ratios to 80 µM Kap114; Assay buffer without glycerol; Nap1 counted as dimer
Kap114 = target: T1, Kap114 (S. cerevisiae, UniProt P53067 1-1004); assay: as above; settings: both partners purified
T1 construct: also called Sc Kap114; source: E. coli, expressed as GST-Kap114, purified (Glutathione Sepharose 4B, on-column TEV cleavage, SEC)
T1 sequence: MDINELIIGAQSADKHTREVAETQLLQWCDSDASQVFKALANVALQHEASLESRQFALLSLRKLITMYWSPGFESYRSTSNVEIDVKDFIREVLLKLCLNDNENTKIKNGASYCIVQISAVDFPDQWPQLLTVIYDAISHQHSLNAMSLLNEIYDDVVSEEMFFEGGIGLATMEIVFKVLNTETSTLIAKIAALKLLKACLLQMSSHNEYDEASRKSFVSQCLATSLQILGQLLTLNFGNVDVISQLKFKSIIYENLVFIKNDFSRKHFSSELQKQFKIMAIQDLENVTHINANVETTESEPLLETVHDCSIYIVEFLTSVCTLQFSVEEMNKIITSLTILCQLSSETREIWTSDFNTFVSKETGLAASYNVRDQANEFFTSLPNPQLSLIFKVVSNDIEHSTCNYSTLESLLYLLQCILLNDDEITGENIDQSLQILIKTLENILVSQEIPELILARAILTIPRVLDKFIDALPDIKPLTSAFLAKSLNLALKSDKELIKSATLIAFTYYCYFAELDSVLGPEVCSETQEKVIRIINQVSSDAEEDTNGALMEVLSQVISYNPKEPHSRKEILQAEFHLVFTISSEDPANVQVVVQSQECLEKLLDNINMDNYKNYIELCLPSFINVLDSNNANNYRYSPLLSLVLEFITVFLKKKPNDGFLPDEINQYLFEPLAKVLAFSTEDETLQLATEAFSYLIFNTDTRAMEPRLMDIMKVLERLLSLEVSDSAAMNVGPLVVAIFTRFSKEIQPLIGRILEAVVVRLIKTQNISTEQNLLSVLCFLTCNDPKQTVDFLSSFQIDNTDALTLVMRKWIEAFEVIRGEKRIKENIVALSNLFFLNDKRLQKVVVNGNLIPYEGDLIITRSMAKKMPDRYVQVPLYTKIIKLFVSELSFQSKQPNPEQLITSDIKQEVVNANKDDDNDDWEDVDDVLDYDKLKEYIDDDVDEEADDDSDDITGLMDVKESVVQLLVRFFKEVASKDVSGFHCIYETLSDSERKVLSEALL

[2] = target: T2, MBP-Kap114 YDAA (Y939A/D942A) (S. cerevisiae, UniProt P53067 1-1004, Y939A | D942A); assay: pull-down; MBP-Kap114 (WT or mutant; or MBP alone) 1 µM immobilized on amylose resin, equimolar Nap1_(2) ± H2A-H2B (1 or 2 µM) ± Ran^GTP; Assay Buffer (20 mM HEPES pH 7.4, 150 mM NaCl, 2 mM MgCl2, 10% glycerol, 2 mM DTT), 30 min at 4°C; Coomassie-stained SDS-PAGE; settings: both partners purified
T2 construct: Kap114, S. cerevisiae, h19loop mutant; source: E. coli BL21 Gold, purified; not shown: MBP, N-terminal, kept
T2 sequence (looked up): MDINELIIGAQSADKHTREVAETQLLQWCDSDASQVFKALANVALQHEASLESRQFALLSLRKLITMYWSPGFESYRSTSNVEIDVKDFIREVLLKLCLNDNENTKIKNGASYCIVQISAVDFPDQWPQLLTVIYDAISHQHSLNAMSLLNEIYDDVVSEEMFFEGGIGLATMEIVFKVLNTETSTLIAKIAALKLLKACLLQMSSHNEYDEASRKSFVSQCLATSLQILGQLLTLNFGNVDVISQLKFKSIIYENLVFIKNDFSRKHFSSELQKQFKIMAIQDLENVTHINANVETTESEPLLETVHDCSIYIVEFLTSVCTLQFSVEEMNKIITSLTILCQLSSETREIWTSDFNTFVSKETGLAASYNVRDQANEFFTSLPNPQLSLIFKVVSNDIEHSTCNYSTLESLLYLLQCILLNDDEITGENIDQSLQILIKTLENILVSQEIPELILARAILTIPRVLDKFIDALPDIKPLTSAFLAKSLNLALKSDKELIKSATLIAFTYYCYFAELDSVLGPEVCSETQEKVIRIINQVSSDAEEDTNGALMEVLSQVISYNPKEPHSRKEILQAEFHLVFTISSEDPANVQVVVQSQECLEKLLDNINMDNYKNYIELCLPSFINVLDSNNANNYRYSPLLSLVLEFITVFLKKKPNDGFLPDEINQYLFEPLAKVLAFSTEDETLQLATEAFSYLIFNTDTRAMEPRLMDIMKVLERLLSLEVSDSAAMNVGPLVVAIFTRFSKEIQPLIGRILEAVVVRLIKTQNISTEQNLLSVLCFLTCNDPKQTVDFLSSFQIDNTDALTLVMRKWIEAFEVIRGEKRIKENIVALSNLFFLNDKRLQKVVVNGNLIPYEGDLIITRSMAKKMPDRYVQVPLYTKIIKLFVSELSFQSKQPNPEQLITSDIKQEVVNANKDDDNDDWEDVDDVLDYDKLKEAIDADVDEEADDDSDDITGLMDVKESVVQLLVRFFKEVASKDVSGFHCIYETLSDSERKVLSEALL

[3] = target: T3, MBP-Kap114 DDAA (D928A/D929A) (S. cerevisiae, UniProt P53067 1-1004, D928A | D929A); assay: as above; settings: both partners purified
T3 construct: Kap114, S. cerevisiae, h19loop mutant; source: E. coli BL21 Gold, purified; not shown: MBP, N-terminal, kept
T3 sequence (looked up): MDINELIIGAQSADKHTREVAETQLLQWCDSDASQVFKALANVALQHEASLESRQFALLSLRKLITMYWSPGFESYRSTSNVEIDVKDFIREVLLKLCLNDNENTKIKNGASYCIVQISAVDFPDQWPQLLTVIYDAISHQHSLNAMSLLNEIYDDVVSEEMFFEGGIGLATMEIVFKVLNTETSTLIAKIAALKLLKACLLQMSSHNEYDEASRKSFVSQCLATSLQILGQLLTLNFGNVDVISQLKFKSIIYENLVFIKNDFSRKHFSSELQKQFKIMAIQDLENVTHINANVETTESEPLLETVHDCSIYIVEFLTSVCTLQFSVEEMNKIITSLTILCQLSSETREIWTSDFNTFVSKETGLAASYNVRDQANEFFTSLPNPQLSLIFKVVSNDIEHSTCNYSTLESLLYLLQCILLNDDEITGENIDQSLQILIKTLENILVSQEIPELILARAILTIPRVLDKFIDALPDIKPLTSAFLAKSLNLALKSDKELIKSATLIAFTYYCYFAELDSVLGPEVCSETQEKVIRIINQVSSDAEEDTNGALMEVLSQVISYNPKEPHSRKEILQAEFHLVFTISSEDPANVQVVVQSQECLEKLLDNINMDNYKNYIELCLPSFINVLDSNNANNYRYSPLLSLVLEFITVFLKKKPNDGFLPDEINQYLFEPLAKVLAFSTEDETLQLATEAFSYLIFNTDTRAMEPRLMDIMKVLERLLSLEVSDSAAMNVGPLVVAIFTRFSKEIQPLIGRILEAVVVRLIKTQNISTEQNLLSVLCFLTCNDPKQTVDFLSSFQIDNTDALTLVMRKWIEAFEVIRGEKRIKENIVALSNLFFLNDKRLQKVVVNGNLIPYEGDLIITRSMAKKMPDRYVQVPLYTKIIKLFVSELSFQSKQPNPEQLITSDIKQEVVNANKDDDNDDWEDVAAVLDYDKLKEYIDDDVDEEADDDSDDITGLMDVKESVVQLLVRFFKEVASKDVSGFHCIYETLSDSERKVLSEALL

stoichiometry N (Kap114): 1
binding result [2]: binds
binding result [3]: binds
B1: Nap1 FL (C200A, C249A, C272A) (natural protein, S. cerevisiae, UniProt P25293 1-417, looked up)
chain: MSDPIRTKPKSSMQIDNAPTPHNTPASVLNPSYLKNGNPVRAQAQEQDDKIGTINEEDILANQPLLLQSIQDRLGSLVGQDSGYVGGLPKNVKEKLLSLKTLQSELFEVEKEFQVEMFELENKFLQKYKPIWEQRSRIISGQEQPKPEQIAKGQEIVESLNETELLVDEEEKAQNDSEEEQVKGIPSFWLTALENLPIVADTITDRDAEVLEYLQDIGLEYLTDGRPGFKLLFRFDSSANPFFTNDILAKTYFYQKELGYSGDFIYDHAEGAEISWKDNAHNVTVDLEMRKQRNKTTKQVRTIEKITPIESFFNFFDPPKIQNEDQDEELEEDLEERLALDYSIGEQLKDKLIPRAVDWFTGAALEFEFEEDEEEADEDEDEEEDDDHGLEDDDGESAEEQDDFAGRPEQAPECKQS
notes: Nap1 (nucleosome assembly protein 1), S. cerevisiae, full length (FL), with C200A, C249A, C272A for specific labeling on 414C; pHAT4 vector, gift from Sheena D'Arcy; Counted as a dimer (Nap1_(2)) in all molar ratios; alone a mixture of dimers and tetramers; also called Nap1_(2); Nap1_(2) FL; source: E. coli BL21 gold, purified (Ni-NTA, TEV cleavage, HiTrap Q, Superdex S200)
stoichiometry N [1]: 2 and 4
